This is an account of results in patent publication US20220033515A1 (Genentech, published 2022).

Several values for one entry are separate records, joined by “and”; a condition that tells them apart may be missing. Equal values may be shown once. Read-outs that look alike come from different tables or passages of the source. Where only a bound is given, the exact number is not on record here.

For assay [1], the target named is T1, HER2 extracellular domain (Her2-ECD) (human, UniProt P04626 23-652).
T1 construct: extracellular domain; also called hHER2 extracellular domain (ECD)
Description: Biacore SPR. A general note: SPR reads the build-up and loss of mass on a sensor chip optically.

The target of assay [2] is T2, hVEGF109 (human, UniProt P15692 214-315).
T2 construct: range 8-109; also called VEGF (8-109)
T2 sequence (looked up): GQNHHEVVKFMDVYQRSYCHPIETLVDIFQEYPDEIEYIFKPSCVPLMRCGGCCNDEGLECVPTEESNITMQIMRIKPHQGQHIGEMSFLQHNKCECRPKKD
The assay can be described thus: Biacore SPR, steady state analysis (* for kon and koff).

Assay [3] deals with T2, hVEGF109. The assay can be described thus: single-spot competitive phage ELISA. For orientation: An ELISA detects its analyte on a solid surface through an enzyme-linked reagent.
Assay [4] concerns the target T1, HER2 extracellular domain (Her2-ECD). Description: single-spot competitive phage ELISA.
In assay [5] the target is T3, human vascular endothelial growth factor (hVEGF) (human, UniProt P15692-4 27-191).
T3 construct: also called hVEGF-A; human vascular endothelial growth factor A
The assay can be described thus: competitive phage ELISA.

Assay [6] addresses T1, HER2 extracellular domain (Her2-ECD). The assay can be described thus: competitive phage ELISA.
For assay [7] the target is unchanged. The assay can be described thus: competitive phage ELISA. The source holds these as a separate data set.
For assay [8] the target is unchanged. The assay can be described thus: equilibrium KD; method and format (Fab or IgG) not given; HER2, second number of the cell.
Assay [9] deals with T4, human death receptor 5 (hDR5) (human, UniProt O14763 56-210).
T4 construct: also called DR5 long; hDR5-1f
Description: ELISA on immobilised target.

The target in assay [10] is T5, hVEGF-C (human, UniProt P49767 103-227).
T5 sequence (looked up): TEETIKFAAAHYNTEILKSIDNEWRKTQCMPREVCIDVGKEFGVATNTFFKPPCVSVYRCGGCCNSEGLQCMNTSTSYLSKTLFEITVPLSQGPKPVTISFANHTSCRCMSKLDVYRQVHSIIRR
Description: ELISA on immobilised target.

The target of assay [11] is T6, hVEGF-D (human, UniProt O43915 93-201).
T6 sequence (looked up): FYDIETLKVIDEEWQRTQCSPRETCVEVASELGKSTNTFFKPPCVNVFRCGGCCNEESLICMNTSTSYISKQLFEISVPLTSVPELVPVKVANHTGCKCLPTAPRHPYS
Description: ELISA on immobilised target.

Assay [12] addresses T7, epidermal growth factor receptor extracellular domain (hEGFR) (human, UniProt P00533 25-645).
T7 construct: extracellular domain
Description: ELISA on immobilised target.

Assay [13] deals with T8, bovine serum albumin (BSA) (bovine, UniProt P02769 25-607). The assay can be described thus: ELISA on immobilised target.
Assay [14] concerns the target T3, human vascular endothelial growth …. The assay can be described thus: equilibrium KD; method and format (Fab or IgG) not given.
In another assay the target is T9, murine VEGF (mVEGF) (murine, UniProt Q00731-2 27-190).
T9 sequence (looked up): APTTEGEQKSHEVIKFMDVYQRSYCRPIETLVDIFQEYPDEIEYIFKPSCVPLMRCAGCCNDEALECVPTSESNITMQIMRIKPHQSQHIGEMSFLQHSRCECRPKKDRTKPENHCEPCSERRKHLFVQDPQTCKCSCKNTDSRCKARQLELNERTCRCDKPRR
The assay can be described thus: ELISA on immobilised target.

Assay [15] deals with T4, human death receptor 5 (hDR5). Description: ELISA on immobilised protein.
For assay [16], the target named is T8, bovine serum albumin (BSA). The assay can be described thus: ELISA on immobilised protein.
In assay [17] the target is T2, hVEGF109. Description: Biacore SPR.
The target in assay [18] is T1, HER2 extracellular domain (Her2-ECD). Description: single-spot phage ELISA.
Assay [19] has the same target. The assay can be described thus: ELISA on immobilised protein.
Assay [20] has as its target T5, hVEGF-C. The assay can be described thus: ELISA on immobilised protein.
Assay [21] addresses T6, hVEGF-D. Description: ELISA on immobilised protein.
The target in assay [22] is T7, epidermal growth factor receptor …. Description: ELISA on immobilised protein.

A word on the Kd: it is the free concentration of one partner at which half of the binding sites on the other are occupied at equilibrium, for simple one-to-one binding. Low readings indicate tighter binding, high ones weaker binding. For orientation: koff means the first-order rate constant of dissociation. Low readings indicate slow dissociation, high ones fast dissociation. For orientation: kon means a measure of how fast the partners come together. High values mean faster complex formation, low ones slower complex formation. Broadly, the IC50 is the concentration needed to halve the response being measured. A higher IC50 goes with weaker potency.

B1: H4_D (antibody, V domains shown)
VH: not shown
VL: DIQMTQSPSSLSASVGDRVTITCRASQDIRSGSVAWYQQKPGKAPKLLIYWGSYLYSGVPSRFSGSGSGTDFTLTISSLQPEDFATYYCQQHYTTPPTFGQGTKVEIK
notes: also called H4_D hIgG
As for B1, in [1], the Kd was determined as 11 nM, the koff was found to be 0.0012 s⁻¹ and the kon was found to be 100000 M⁻¹ s⁻¹. Moreover, in the assay with hVEGF109 [2], the affinity, expressed as Kd, was 2300 nM.

B2: H4_N (antibody, V domains shown)
VH: not shown
VL: DIQMTQSPSSLSASVGDRVTITCRASQNIRSGSVAWYQQKPGKAPKLLIYWASYLYSGVPSRFSGSGSGTDFTLTISSLQPEDFATYYCQQHYTTPPTFGQGTKVEIK
notes: also called H4_N hIgG; H4_N Fab
With B2, in assay [1], the Kd was 10 nM and 6 nM; the koff was 0.0013 s⁻¹; the kon was 140000 M⁻¹ s⁻¹ and 230000 M⁻¹ s⁻¹. Besides, the Kd in the assay with hVEGF109 [2] worked out at 550 nM.

B3: H5 (row of FIG.8a) (scFv, V domains shown)
VH: not shown
VL: DIQMTQSPSSLSASVGDRVTITCRASQDIRGGSVAWYQQKPGKAPKLLIYGGSYLYSGVPSRFSGSGSGTDFTLTISSLQPEDFATYYCQQYYTTPPTFGQGTKVEIK
Take B3: in the assay with hVEGF109 [3], the “% signal, SSC +/- 50nM Vegf” value is 88.8% and the OD450 without competitor is 2.77. The OD450 without competitor in [4] came to 2.87.

B4: 3-2 (scFv, V domains shown)
VH: not shown
VL: DIQMTQSPSSLSASVGDRVTITCRASQDIRMGSVAWYQQKPGKAPKLLIYWGSVLYSGVPSRFSGSGSGTDFTLTISSLQPEDFATYYCQQHYTTPPTFGQGTKVEIK
Turning to B4, the IC50 in [5] is over 1000 nM; in assay [6], 1.56 nM.

B5: bH1 (antibody, V domains shown)
VH: not shown
VL: DIQMTQSPSSLSASVGDRVTITCRASQDIPRSISGYVAWYQQKPGKAPKLLIYWGSYLYSGVPSRFSGSGSGTDFTLTISSLQPEDFATYYCQQHYTTPPTFGQGTKVEIKR
notes: also called anti-hVEGF/Her2 bi-specific antibody
B5 came in with an IC50 in assay [7] of 10 nM. This molecule also yielded a Kd in assay [8] of 26 nM.

B6: bH1 hIgG (antibody, V domains shown)
VH: not shown
VL: DIQMTQSPSSLSASVGDRVTITCRASQDIPRSISGYVAWYQQKPGKAPKLLIYWGSYLYSGVPSRFSGSGSGTDFTLTISSLQPEDFATYYCQQHYTTPPTFGQGTKVEIKR
notes: also called bH1 IgG; not shown: rest of the human IgG heavy chain constant region
Molecule B6 gave a Kd in assay [1] of 9.8 nM. For the same molecule, the binding result (in assay [9]; with hVEGF-C [10]; with hVEGF-D [11]; in assay [12]; in [13]) was “no binding (tested: 100 nM (text))” in each case.

B7: bH3 (antibody, V domains shown)
VH: not shown
VL: DIQMTQSPSSLSASVGDRVTITCRASQDIGLGSVAWYQQKPGKAPKLLIYWASYLYSGVPSRFSGSGSGTDFTLTISSLQPEDFATYYCQQHYTTPPTFGQGTKVEIKR
Regarding B7, the IC50 in [7] amounted to 2.6 nM. Also, the OD450 without competitor in assay [4] amounted to 1.96. The values for the Kd in [14] and in assay [8] were 19000 nM and 8 nM, respectively.

B8: H3 hIgG (antibody, V domains shown)
VH: not shown
VL: DIQMTQSPSSLSASVGDRVTITCRASQDIGLGSVAWYQQKPGKAPKLLIYWASYLYSGVPSRFSGSGSGTDFTLTISSLQPEDFATYYCQQHYTTPPTFGQGTKVEIKR
notes: also called bH3 IgG; not shown: rest of the human IgG heavy chain constant region
On to B8, for which the Kd in assay [1] amounted to 20 nM. The binding result is “no binding (tested: 100 nM (text))” with murine VEGF (mVEGF); “no binding (tested: 100 nM (text))” with hVEGF-C [10]; “no binding (tested: 100 nM (text))” with hVEGF-D [11]; “no binding (tested: 100 nM (text))” in assay [12]; “no binding (tested: 100 or 500 nM (text))” in assay [15]; “no binding (tested: 100 or 500 nM (text))” in assay [16].

B9: 3-1 (antibody, V domains shown)
VH: not shown
VL: DIQMTQSPSSLSASVGDRVTITCRASQNVWDWVAWYQQKPGKAPKLLIYPASSLYSGVPSRFSGSGSGTDFTLTISSLQPEDFATYYCQQGWYIAPPTFGQGTKVEIKR
Take B9: the Kd (with hVEGF109 [17]; in assay [14]) was 15 nM throughout. For the same molecule, the binding result in [18] is “no binding”.

B10: 3-1 hIgG (antibody, V domains shown)
VH: not shown
VL: DIQMTQSPSSLSASVGDRVTITCRASQNVWDWVAWYQQKPGKAPKLLIYPASSLYSGVPSRFSGSGSGTDFTLTISSLQPEDFATYYCQQGWYIAPPTFGQGTKVEIKR
notes: not shown: rest of the human IgG heavy chain constant region
As to B10, the Kd with hVEGF109 [17] was 12 nM. Besides, the binding result (in assay [19]; in assay [15]; with hVEGF-C [20]; with hVEGF-D [21]; in [22]; in assay [16]) was “no binding (tested: 100 or 500 nM (text))” in each case.
